Data taken from patent publication US20250197451A1 (CAPITAL MEDICAL UNIVERSITY SCHOOL OF STOMATOLOGY, published 2025).

What was measured:
[1] = biological target: T1, biotin-labelled EZH2 protein (UniProt Q15910 1-746, limits assumed, biotin label (EZ-link NHS-PEO4-Biotinylation kit)); assay: KDM2B peptide array probed with biotin-EZH2 1 ug/ml, SA-HRP/ECL; Remark: noise
T1 construct: Probe in solution (1 ug/ml) on the KDM2B peptide microarray; also called NHS-PEO4-Biotinylation-labelled EZH2 protein; recombinant protein
Description: (§1) After blocking, the polypeptide microarray was incubated with biotin-labeled target protein for hybridization, visualized with the chemical chromogenic substrate and imaged using a Chempchemi digital imager. The image of colored polypeptide microarray was analyzed for the optical density of the colored points. Particularly, the optical density of each colored point was calculated using the optical density of the respective surrounding background as a reference for background correction. The highest optical density value of the colored point on membrane was set to 100%, and the optical density value of the remaining colored points was converted into percentages relative to the highest value. The points with an optical density percentage of more than 30% on the polypeptide membrane and also with an optical density percentage of less than 30% on the negative membrane were defined as positive colored points.
(§2) For the hybridization experiment, a solution of NHS-PEO4-Biotinylation-labelled EZH2 protein (1 μg/ml) was used for the hybridization of the polypeptide microarray. Streptavidin-HRP was used to amplify the reaction signal according to the experimental procedure and conditions described above, and the time of color development was 5 minutes.

[2] = biological target: T1, biotin-labelled EZH2 protein; assay: KDM2B peptide array probed with biotin-EZH2 1 ug/ml, SA-HRP/ECL;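 further: Background-corrected optical density of each spot on the membrane, given as percent of the brightest spot (100%), color developed for 5 minutes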
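Further: 100% is the highest background-corrected spot optical density on the membrane.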
Description: as §1, §2

T1 sequence (Q15910 whole entry): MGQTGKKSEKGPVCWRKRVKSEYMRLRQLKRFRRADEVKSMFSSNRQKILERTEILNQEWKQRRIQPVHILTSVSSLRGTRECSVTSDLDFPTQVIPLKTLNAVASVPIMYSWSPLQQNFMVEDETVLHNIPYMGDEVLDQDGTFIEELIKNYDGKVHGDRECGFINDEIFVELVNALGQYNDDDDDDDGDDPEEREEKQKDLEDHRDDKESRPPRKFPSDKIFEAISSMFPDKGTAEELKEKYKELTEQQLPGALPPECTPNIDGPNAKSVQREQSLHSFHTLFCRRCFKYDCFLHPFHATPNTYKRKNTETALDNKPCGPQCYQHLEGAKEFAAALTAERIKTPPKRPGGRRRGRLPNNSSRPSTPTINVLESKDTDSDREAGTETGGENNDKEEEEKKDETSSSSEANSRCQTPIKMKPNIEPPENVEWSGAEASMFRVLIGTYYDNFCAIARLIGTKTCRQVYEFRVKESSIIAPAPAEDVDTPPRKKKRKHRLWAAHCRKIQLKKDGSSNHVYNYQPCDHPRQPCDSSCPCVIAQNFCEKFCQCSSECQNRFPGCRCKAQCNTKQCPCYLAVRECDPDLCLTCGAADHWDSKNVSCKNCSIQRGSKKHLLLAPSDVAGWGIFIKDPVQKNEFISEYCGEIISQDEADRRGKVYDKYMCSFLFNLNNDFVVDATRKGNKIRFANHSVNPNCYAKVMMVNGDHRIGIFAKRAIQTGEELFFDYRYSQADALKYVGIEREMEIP

Binder	Intensity (%) [1]	Intensity (%) [2]
LSWLINRLPGLRDLV [peptide 229]	0%	–
IQMERHVIRPPPISP [peptide 208]	0%	–
RPPGICERPHRFSKG [peptide 198]	0%	–
VYCVTQRSHLTQEYQ [peptide 75]	–	0%
YPFYYEMCWYVLERY [peptide 72]	–	0.04%
PMQLRIYEIEDRTRV [peptide 68]	–	6.33%
RVISRPPPSVSPPKC [peptide 205]	0.39%	–
IIRRQPVSLDLSWTN [peptide 225]	0%	–
ISKKQLSWLINRLPG [peptide 228]	0%	–
EEEEKDEEGEGRDRA [peptide 85]	–	0%
YTKCFEFESATQRPI [peptide 7]	–	0%
KSITPLMLSGIIRRQ [peptide 223]	0%	–
VKSTTLAVDYPKTPT [peptide 97]	–	0%
KDMKKFGGPGRMKQS [peptide 127]	0%	–
TAGPSTEGAEGPEEK [peptide 184]	0%	–
TQRPIDRQRYDENED [peptide 9]	–	0%
LSWTNISKKQLSWLI [peptide 227]	0%	–
RESMLIDAPRKPSID [peptide 78]	–	1.74%
RTLSNESEESVKSTT [peptide 95]	–	0%
PKPPTDGSTSPTSTP [peptide 88]	–	0%
GKTGKQKRGPGFKYA [peptide 146]	0.01%	–
IDAPRKPSIDGFSSD [peptide 79]	–	1.13%
ELSGRKRASSLQTSP [peptide 163]	0%	–
LRFLKRTLSNESEES [peptide 94]	–	0%

Binder	Intensity (%) [1]	Intensity (%) [2]
PPISPPPDSLPLDDG [peptide 210]	0%	–
HSFNVPMQLRIYEIE [peptide 67]	–	0%
RSSSPTAGPSTEGAE [peptide 183]	0%	–
PPKTRESDHSRSSSP [peptide 181]	0.3%	–
PKAPALRFLKRTLSN [peptide 93]	–	0%
KPSIDGFSSDSWLEM [peptide 80]	–	6.61%
LNGTPRELRHQLGPS [peptide 201]	0.18%	–
KCNHAGKTGKQKRGP [peptide 145]	0%	–
AMEGKDFNYEYVQRE [peptide 18]	0%	–
KRASSLQTSPGSSSH [peptide 164]	0.34%	–
QRSHLTQEYQRESML [peptide 76]	–	0%
EEAPRRRSDEHSKKV [peptide 155]	0%	–
EIVSVRGFSLEEKLR [peptide 13]	0.05%	–
SWLEMEEEACDQQPQ [peptide 82]	–	0%
DEEGEGRDRAPKPPT [peptide 86]	–	0.03%
LQTSPGSSSHLSPRP [peptide 165]	0%	–
GFSSDSWLEMEEEAC [peptide 81]	–	7.19%
TWNRWCCDKRLWTRI [peptide 219]	0.56%	–
RGFSLEEKLRSQLYQ [peptide 14]	0.07%	–
HVIRPPPISPPPDSL [peptide 209]	0.32%	–
GRDRAPKPPTDGSTS [peptide 87]	–	0%
ESDHSRSSSPTAGPS [peptide 182]	0.36%	–
MGGSAEDHPPRKRHA [peptide 2]	0%	–
RELRHQLGPSLRSPP [peptide 202]	0.64%	–
